Patent CN112010973A (SHANDONG BOAN BIOTECHNOLOGY CO LTD, dated 2020)

Molecular target: T1, 4-1BB蛋白(义翘神州，10041-H08H) (human, UniProt Q07011 24-186)
T1 construct: bought reagent; also called 4-1BB-His蛋白; 4-1BB protein
Test: SPR, BIAcore X100; antibody captured by anti-human IgG Fc on CM5, 4-1BB protein as analyte, 1:1 model

Kd: 4.87 nM
koff: 0.00251 s⁻¹
kon: 516000 M⁻¹ s⁻¹
B1: Urelumab (antibody, human IgG4 S228P, kappa, V domains shown)
VH: QVQLQQWGAGLLKPSETLSLTCAVYGGSFSGYYWSWIRQSPEKGLEWIGEINHGGYVTYNPSLESRVTISVDTSKNQFSLKLSSVTAADTAVYYCARDYGPGNYDWYFDLWGRGTLVTVSS
VL: EIVLTQSPATLSLSPGERATLSCRASQSVSSYLAWYQQKPGQAPRLLIYDASNRATGIPARFSGSGSGTDFTLTISSLEPEDFAVYYCQQRSNWPPALTFGGGTKVEIKR
notes: Second positive control antibody, expressed in HEK293 in the same way as Utomilumab
